This data set in a line: self-splicing fitness, log relative to wild type (ln ratio); higher = more splicing; Tetrahymena group I intron in knt gene, E. coli kanamycin selection, DiMSum; sequences stand for … in CUCUCU…GGAGGGAAAAGUUAUCAGGCAUGCACCUGGUAGCUAGUCUUUAAACCAAUAGAUUGCAUCGGUUUAAAAGGCAAGACCGUCAAAUUGCGGGAAAGGGGUCAACAGCCGUUCAGUACCAAGUCUCAGGGGAAACUUUGAGAUGGCCUUGCAAAGGGUAUGGUAAUAAGCUGACGGACAUGGUCCUAACCACGCAGCCAAGUCCUAAGUCAACAGAUCUUCUGUUGAUAUGGAUGCAGUUCACAGACUAAAUGUCGGUCGGGGAAGAUGUAUUCUUCUCAUAAGAUAUAGUCGGACCUCUCCUUAAUGGGAGCUAGCGGAUGAAGUGAUGCAACACUGGAGCCGCUGGGAACUAAUUUGUAUGCGAAAGUAUAUUGAUUAGUUUUGGAGUACUCGUGGUCG
The procedure, abridged:
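The eight P1ex-region nucleotides of an intron in the knt kanamycin-resistance gene on pET-22b(+) were all randomised and the library put into E. coli BL21(DE3). Six replicate transformations were grown overnight at 37°C or 30°C on LB agar with or without 25 μg/mL kanamycin, together with 100 μg/mL carbenicillin, 50 μM IPTG and 0.2% rhamnose. Colonies were pooled and amplicon-sequenced on an Illumina HiSeq 2500. Fitness from DiMSum is the error-weighted combination of wild-type-normalised replicate fold changes, kanamycin over none.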

The record followed here is the supplement of paper PMC7877785.

± gives the uncertainty stated by the source.

With GCCAAGCAAUAUUACGAUCG, the “self-splicing fitness (ln)” value (30 °C) is -2.24 ± 0.22 and the “self-splicing fitness (ln)” value (37 °C) is -2.42 ± 0.22.
The matching figures for AAGCAGCAAUAUUACGCUCU: -1.55 ± 0.098 and -0.549 ± 0.11.
With CGUGAGCAAUAUUACGCCCA, for the setting “37 °C”, the “self-splicing fitness (ln)” value is -2.03 ± 0.46.
On to GAGUAGCAAUAUUACGGACC, for which the “self-splicing fitness (ln)” value (30 °C) is -1.29 ± 0.21 and the “self-splicing fitness (ln)” value (37 °C) is -0.248 ± 0.22.
The matching figures for AACUAGCAAUAUUACGGACC: -0.676 ± 0.071 and -0.0449 ± 0.11.
The corresponding values for AGCCAGCAAUAUUACGGGGC are -3.88 ± 0.15 and -3.13 ± 0.14.
For the sequence AGGAAGCAAUAUUACGUUCG, the “self-splicing fitness (ln)” value was -0.643 ± 0.071 (30 °C) and -0.266 ± 0.11 (37 °C).
Regarding GUCAAGCAAUAUUACGAUUC, the “self-splicing fitness (ln)” value is, setting by setting: (30 °C) -1.76 ± 0.17; (37 °C) 0.0525 ± 0.15.
The corresponding values for AGCAAGCAAUAUUACGCUCC are -3.78 ± 0.4 and -1.58 ± 0.39.
ACGUAGCAAUAUUACGGGCG: the “self-splicing fitness (ln)” value (30 °C) is -0.566 ± 0.19 and the “self-splicing fitness (ln)” value (37 °C) was -1.07 ± 0.19.
On to GGCAAGCAAUAUUACGCGCU, for which the “self-splicing fitness (ln)” value is -3.35 ± 0.42 (30 °C) and -3.25 ± 0.43 (37 °C).
The corresponding values for ACAUAGCAAUAUUACGGGUA are -2.8 ± 0.19 and -2.35 ± 0.14.
Take GACCAGCAAUAUUACGUGCG: the “self-splicing fitness (ln)” value by setting is: (30 °C) -0.787 ± 0.082; (37 °C) -0.644 ± 0.097.
With AGGUAGCAAUAUUACGGUAA, the “self-splicing fitness (ln)” value was -2.123 ± 0.021 (30 °C) and -1.2 ± 0.034 (37 °C).
On to CCUGAGCAAUAUUACGAGCU, for which the “self-splicing fitness (ln)” value (37 °C) is -1.95 ± 0.42.
As for AAACAGCAAUAUUACGUGUA, the “self-splicing fitness (ln)” value (30 °C) is -2.6 ± 0.1 and the “self-splicing fitness (ln)” value (37 °C) is -1.41 ± 0.089.
Turning to UCGCAGCAAUAUUACGCUAA, the “self-splicing fitness (ln)” value runs as follows: (30 °C) -1.96 ± 0.14; (37 °C) -1.72 ± 0.15.
The matching figures for UAGAAGCAAUAUUACGUAUG: -1.01 ± 0.07 and -1.14 ± 0.11.
The matching figures for GAUAAGCAAUAUUACGGAGA: -3.48 ± 0.36 and -2.78 ± 0.24.
The corresponding values for GCCCAGCAAUAUUACGAAUG are -4.15 ± 0.24 and -2.26 ± 0.23.
As for UGCAAGCAAUAUUACGGCUA, the “self-splicing fitness (ln)” value (30 °C) was 0.00387 ± 0.089 and the “self-splicing fitness (ln)” value (37 °C) is -0.123 ± 0.1.
Consider GGCGAGCAAUAUUACGUCUC, for which the “self-splicing fitness (ln)” value was -1.87 ± 0.23 (30 °C) and -1.67 ± 0.38 (37 °C).
On to GAAUAGCAAUAUUACGAGAU, for which the “self-splicing fitness (ln)” value runs as follows: (30 °C) -3.86 ± 0.23; (37 °C) -1.22 ± 0.14.
The matching figures for GCGCAGCAAUAUUACGUUGC: -2.95 ± 0.14 and -2.51 ± 0.27.
The corresponding values for GACAAGCAAUAUUACGAUCA are 0.0763 ± 0.12 and -0.0166 ± 0.15.
As to CUGAAGCAAUAUUACGUCUU, the “self-splicing fitness (ln)” value (30 °C) is -3.7 ± 0.24 and the “self-splicing fitness (ln)” value (37 °C) was -2.64 ± 0.25.
As to CAGUAGCAAUAUUACGCACC, the “self-splicing fitness (ln)” value was -2.03 ± 0.26 (30 °C) and -1.61 ± 0.43 (37 °C).
Turning to CUGCAGCAAUAUUACGUGAU, the “self-splicing fitness (ln)” value (30 °C) is -1.19 ± 0.072 and the “self-splicing fitness (ln)” value (37 °C) is -0.758 ± 0.12.
The matching figures for AAAUAGCAAUAUUACGAGAU: -2.1 ± 0.16 and -1.47 ± 0.21.
On to UCUUAGCAAUAUUACGACGG, for which the “self-splicing fitness (ln)” value (30 °C) is -0.955 ± 0.15 and the “self-splicing fitness (ln)” value (37 °C) is -0.0318 ± 0.2.
The corresponding values for AAGAAGCAAUAUUACGAAGA are -3.29 ± 0.19 and -2.15 ± 0.19.
The corresponding values for GUAAAGCAAUAUUACGUCAG are -3.53 ± 0.32 and -1.83 ± 0.19.
As to AUGCAGCAAUAUUACGUGGG, the “self-splicing fitness (ln)” value (37 °C) is -2.97 ± 0.28.
For AUGCAGCAAUAUUACGCUUA, the “self-splicing fitness (ln)” value (30 °C) was -1.26 ± 0.1 and the “self-splicing fitness (ln)” value (37 °C) is -0.294 ± 0.094.
The corresponding values for CUUAAGCAAUAUUACGUAGU are -3.14 ± 0.13 and -2.3 ± 0.18.
In the case of GCGCAGCAAUAUUACGGAUG, the “self-splicing fitness (ln)” value (30 °C) is -1.72 ± 0.1 and the “self-splicing fitness (ln)” value (37 °C) was -1.39 ± 0.12.
Take GAGCAGCAAUAUUACGUUGC: the “self-splicing fitness (ln)” value (30 °C) was -4.45 ± 0.34 and the “self-splicing fitness (ln)” value (37 °C) is -3.41 ± 0.23.
The matching figures for AUUCAGCAAUAUUACGUAAC: -0.841 ± 0.17 and 1.08 ± 0.19.
The corresponding values for AUUCAGCAAUAUUACGUAGU are -0.994 ± 0.047 and -0.0257 ± 0.069.
UCUCAGCAAUAUUACGUACA: the “self-splicing fitness (ln)” value runs as follows: (30 °C) -1.81 ± 0.21; (37 °C) -0.374 ± 0.15.
The matching figures for GUGAAGCAAUAUUACGUACA: -0.778 ± 0.082 and 0.51 ± 0.12.
The corresponding values for CUAUAGCAAUAUUACGUUUG are -1.38 ± 0.084 and -1.11 ± 0.11.
In the case of CUUUAGCAAUAUUACGCAUU, the “self-splicing fitness (ln)” value reads like this: (30 °C) -4.72 ± 0.31; (37 °C) -3.51 ± 0.23.
For the sequence UCUUAGCAAUAUUACGGGAC, the “self-splicing fitness (ln)” value (30 °C) was -3.78 ± 0.24 and the “self-splicing fitness (ln)” value (37 °C) is -1.8 ± 0.32.
The matching figures for CGUCAGCAAUAUUACGGGAG: -2.36 ± 0.098 and -0.946 ± 0.11.
The corresponding values for CAUUAGCAAUAUUACGUAGU are -3.66 ± 0.17 and -1.84 ± 0.17.
With CCCGAGCAAUAUUACGUGAC, the “self-splicing fitness (ln)” value (37 °C) is -2.41 ± 0.3.
Regarding CAAGAGCAAUAUUACGACCC, the “self-splicing fitness (ln)” value (30 °C) was -2.19 ± 0.45.
AGGAAGCAAUAUUACGCCUU: the “self-splicing fitness (ln)” value is -2.67 ± 0.2 (30 °C) and -0.955 ± 0.18 (37 °C).
With AAAUAGCAAUAUUACGGUAU, the “self-splicing fitness (ln)” value is, setting by setting: (30 °C) -1.69 ± 0.1; (37 °C) -0.496 ± 0.12.
The corresponding values for GAUAAGCAAUAUUACGGCGG are -2.27 ± 0.12 and -1.32 ± 0.13.
For AACCAGCAAUAUUACGAACC, the “self-splicing fitness (ln)” value (30 °C) was -0.246 ± 0.13 and the “self-splicing fitness (ln)” value (37 °C) amounted to 0.00425 ± 0.19.
Turning to ACGGAGCAAUAUUACGAAGG, the “self-splicing fitness (ln)” value is -3.68 ± 0.21 (30 °C) and -2.7 ± 0.27 (37 °C).
On to UUCGAGCAAUAUUACGUUAA, for which the “self-splicing fitness (ln)” value is, setting by setting: (30 °C) -2.16 ± 0.31; (37 °C) -1.82 ± 0.21.
Consider ACAGAGCAAUAUUACGACUU, for which the “self-splicing fitness (ln)” value was -2.44 ± 0.16 (30 °C) and -1.52 ± 0.15 (37 °C).
Regarding GGAUAGCAAUAUUACGGAAC, the “self-splicing fitness (ln)” value was -1.9 ± 0.22 (30 °C) and -2.03 ± 0.29 (37 °C).
The corresponding values for CCGCAGCAAUAUUACGAUCG are 0.289 ± 0.083 and 0.186 ± 0.11.
Regarding CAAUAGCAAUAUUACGGCCG, the “self-splicing fitness (ln)” value by setting is: (30 °C) 0.102 ± 0.12; (37 °C) 0.341 ± 0.16.
Turning to CGGUAGCAAUAUUACGUGAU, the “self-splicing fitness (ln)” value reads like this: (30 °C) -1.49 ± 0.14; (37 °C) -0.851 ± 0.18.
The matching figures for ACCAAGCAAUAUUACGGUAU: -3.45 ± 0.13 and -0.475 ± 0.094.
The corresponding values for AAAAAGCAAUAUUACGCUCU are -1.08 ± 0.081 and -0.167 ± 0.09.
The corresponding values for ACAAAGCAAUAUUACGGAGG are -2.23 ± 0.078 and -2.17 ± 0.11.
Take GGGAAGCAAUAUUACGGGUA: the “self-splicing fitness (ln)” value was -0.928 ± 0.2 (30 °C) and -2.25 ± 0.23 (37 °C).
GAAAAGCAAUAUUACGCGGC: the “self-splicing fitness (ln)” value (30 °C) is -3.33 ± 0.19 and the “self-splicing fitness (ln)” value (37 °C) is -3.07 ± 0.26.
On to AACAAGCAAUAUUACGAAAG, for which the “self-splicing fitness (ln)” value is -2.14 ± 0.14 (30 °C) and -2.73 ± 0.22 (37 °C).
The corresponding values for UAAUAGCAAUAUUACGCUGU are -3.69 ± 0.28 and -0.659 ± 0.17.
In the case of GCUUAGCAAUAUUACGACGA, the “self-splicing fitness (ln)” value reads like this: (30 °C) -0.927 ± 0.16; (37 °C) -0.516 ± 0.13.
The corresponding values for UUCCAGCAAUAUUACGUUUC are -3.24 ± 0.23 and -2.17 ± 0.21.
For CGUUAGCAAUAUUACGCUGU, the “self-splicing fitness (ln)” value is -2.88 ± 0.22 (30 °C) and -2.71 ± 0.33 (37 °C).
The matching figures for UGCCAGCAAUAUUACGAAUG: -1.3 ± 0.18 and 0.0957 ± 0.17.
As for AAAAAGCAAUAUUACGAUUG, the “self-splicing fitness (ln)” value is -1.86 ± 0.093 (30 °C) and -1.67 ± 0.13 (37 °C).
For ACCCAGCAAUAUUACGGACC, the “self-splicing fitness (ln)” value by setting is: (30 °C) -0.974 ± 0.073; (37 °C) -0.347 ± 0.089.
The matching figures for UGCUAGCAAUAUUACGAUUA: -0.493 ± 0.095 and -0.286 ± 0.096.
The corresponding values for AGUAAGCAAUAUUACGAAUC are -4.12 ± 0.42 and -2.86 ± 0.34.
The corresponding values for CUAGAGCAAUAUUACGCACG are -0.957 ± 0.15 and -0.23 ± 0.24.
Take AGGAAGCAAUAUUACGAAAG: the “self-splicing fitness (ln)” value is -2.44 ± 0.23 (30 °C) and -1.19 ± 0.35 (37 °C).
In the case of CUUGAGCAAUAUUACGCCUG, where the note is “37 °C”, the “self-splicing fitness (ln)” value is -1.13 ± 0.36.
